In patent US20140234868A1, “USE FOR GLYCOLIPOPROTEIN GINTONIN, ISOLATED AND IDENTIFIED FROM GINSENG, AS A NATURAL MEDICAL-PLANT DERIVED LIGAND” (KONKUK UNIVERSITY INDUSTRIAL COOPERATION CORP., priority 2011, published 2014):

Experiments:
rat adrenal gland = test: Catecholamine secretion from perfused rat adrenal gland
Protocol: Male rats (Sprague-Dawley, each weighing 200 to 300 g) was anesthetized by an to intraperitoneal injection of thiopental sodium (50 mg/kgm), and the adrenal gland was excised from the rats according to the method of Wakade and Woo et al. (Wakade, J Physiol. 313, 463-480, 1981; Woo et al., Korean J Physiol Pharmacol., 12, 155-164, 2008).
Briefly, a cannula was inserted so as to perfuse the adrenal gland, as illustrated in FIG. 18. During the cannula insertion, heparin (400 IU/ml) was infused into the vena cava in order to prevent blood coagulation. Then, the adrenal gland was isolated from the body, and transferred to a leucite chamber which was kept at 37±1° C.
The adrenal gland was perfused at a rate of 0.33 ml/min with the aid of a peristaltic pump (ISCO® pump, WIZ Co. U.S.A.). The perfusion solution was a Krebs-bicarbonate solution: (mM) NaCl, 118.4; KCl, 4.7; CaCl2, 2.5; MgCl2, 1.18; NaHCO3, 25; KH2PO4, 1.2; glucose, 11.7.
The perfusion solution was continuously aerated with 95% O2+5% CO2 gas, and was maintained to have pH 7.4-7.5. In addition, the perfusion solution was supplemented with EDTA ([…]) and ascorbic acid ([…]) to prevent the oxidation of catecholamines (Woo et al., Korean J Physiol Pharmacol., 12, 155-164, 2008).
Gintonin (1˜10 μg/ml) or cyclopiazonic acid (10 μM) was applied by perfusion for 4 min while acetylcholine (5.32 mM) was infused at a dose of 50 μl using a three-way stopcock.
Prior to treatment with a material stimulating catecholamine secretion, the adrenal gland was left until the secretion of catecholamine in the absence of stimuli reached a constant level, that is, a background or basal level, which typically took 5˜10 min. Then, the adrenal gland was perfused with gintonin or other drugs, and perfusates effluent from the adrenal gland were collected at regular intervals of 4 min, and the amount of catecholamines released by drug stimulation was calculated by subtracting the background or basal level from measurements (Woo et al., Korean J Physiol Pharmacol., 12, 155-164, 2008).
In order to examine the effect of gintonin on the spontaneous secretion of catecholamine and on the stimulus-induced secretion of catecholamine, the adrenal gland was perfused with a Krebs solution containing gintonin alone or in combination with other drugs, after which the perfusates were collected until the amount of secreted catecholamine reached the background level. The collected adrenal perfusates were stored in tubes maintained at 4° C.
Catecholamine in the perfusates was quantified using a fluorospectrophotometer (Kontron Co., Milano, Italy) according to the methods of Anton and Sayre, and Lim. In this regard, each perfusate amounted to 0.2 ml (Woo et al., Korean J Physiol Pharmacol., 12, 155-164, 2008).

LPA6 receptor = biological target: T1, LPA6 receptor (Homo sapiens, UniProt P43657); test: Intracellular cAMP level in LPA6-expressing B103 cells; type: cell-based
T1 construct: host or cells: B103 rat neuroblastoma cells
T1 sequence (P43657 1-344): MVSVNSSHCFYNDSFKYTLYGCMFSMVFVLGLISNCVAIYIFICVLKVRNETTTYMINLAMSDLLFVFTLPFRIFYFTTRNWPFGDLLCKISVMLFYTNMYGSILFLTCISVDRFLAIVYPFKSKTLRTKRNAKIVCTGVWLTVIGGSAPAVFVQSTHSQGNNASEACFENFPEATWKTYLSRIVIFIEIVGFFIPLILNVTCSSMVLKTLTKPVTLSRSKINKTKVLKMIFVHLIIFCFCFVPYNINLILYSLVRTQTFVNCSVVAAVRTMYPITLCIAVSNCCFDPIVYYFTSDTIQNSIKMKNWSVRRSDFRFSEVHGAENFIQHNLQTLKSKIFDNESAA
Text: After treatment with gintonin, B103 cells expressing LPA3 or LPA6 receptor were examined for change in intracellular cAMP level.

mice = test: Busulfan-caused diarrhea and mucositis in mice; type: in vivo, mouse; settings: for Diarrhea (cases / mice) / Mucositis (cases / mice): gintonin 100 mg/kg oral 3 days before, observed 10 days
Protocol: In this Example, an examination was made of the inhibitory activity of gintonin against chemotherapy-induced diarrhea and mucositis. For this, gintonin-treated mice were administered with busulfan, and observed for diarrhea and mucostitis.
Briefly, mice were orally administered at a dose of 100 mg/kg with gintonin 3 days before intraperitoneal injection with busulfan (40 mg/kg). For the control, physiological saline was used, instead of gintonin.

[1] = busulfan 40 mg/kg i.p., gintonin 100 mg/kg oral
[2] = busulfan 40 mg/kg i.p., listed as Gintonin + Busulfan

B1: gintonin: ginseng-derived glycolipoprotein; structural protein of ginseng major latex-like protein (MLP151) and ribonuclease-like storage proteins; crude gintonin used in tests (protein)
chain 1: MGLTGKLICQTGIKSDGDVFHELFGTRPHHVPNITPANIQGCDLHEGEFGKVGSVVIWNYSIDGNAMIAKEEIVAIDEEDKSVTFKVVEGHLFEEFKSIVFSVHVDTKGEDNLVTWSIDYEKLNESVKDPTSYLDFLLSVTRDIEAHHLPK
chain 2: RSDYPWAMFALRLQWPAGFCEVNNACDTKSLLNTFTIHGLYPYNAKGTPALYCDGTAFDVNSVSDFLAEMHLAWPSHETNTEDIQFWEHEWKKHGRCSEALLKQTDYFRTALAFRKAFDIVGLLNQEGIYPNNDLYRPKMIKEAIKKHLNAVPEIDFTKNENSEYVLTDINVCVNQQATRFVDCPTDDATDDYRLKFVRLPSKMKFADPRTNSII
catecholamine secretion after acetylcholine (rat adrenal gland; gintonin 1 μg/ml, pre-treatment with 5.32 mM acetylcholine): incapacitated the effect | catecholamine secretion after acetylcholine (rat adrenal gland; gintonin 3 μg/ml, 5.32 mM acetylcholine): continually promote the secretion of catechlamine | catecholamine secretion after acetylcholine (rat adrenal gland; gintonin 10 μg/ml, 5.32 mM acetylcholine): stimulates the secretion of catecholamine in the early stage, but could not induce the secretion since then | catecholamine secretion (rat adrenal gland; gintonin 1~10 μg/ml, perfusion at 15-min intervals): continually secrete catecholamine in a dose-dependent manner | change in intracellular cAMP level (LPA6 receptor): no influences on intracellular cAMP level | diarrhea morbidity rate (mice; [1]): 20% | perianal mucositis morbidity (mice; [1]): 13.3% | Diarrhea (cases / mice) (mice; busulfan 40 mg/kg i.p.): 3 | Mucositis (cases / mice) (mice; busulfan 40 mg/kg i.p.): 2 | Diarrhea (cases / mice) (mice; [2]): 3/15 | Mucositis (cases / mice) (mice; [2]): 2/15 | inhibition of busulfan-caused perianal mucositis (mice; gintonin 100 mg/kg oral): 33.4% | reduction of busulfan-caused diarrhea (mice; gintonin 100 mg/kg oral): more than 30%
